Test results: US20190175744A1 (Merck Sharp & Dohme, published 2019)
Starred links: 1 amine or outer side, 2 acyl side, 3 side chain; linkers in the order of their positions; H or OH if unused. Non-standard residues stand in square brackets, D forms with d. Groups on a side chain read outwards from the residue. No end group written: not given here. *: point of attachment. C20 diacid = O=C(O)CCCCCCCCCCCCCCCCCCC(=O)*; Lys(N3) = [N-]=[N+]=NCCCC[C@H](N)C(=O)O; γGlu = O=C(O)[C@H](CCC(=O)[*:2])N[*:1]; Met(O2) = CS(=O)(=O)CC[C@H](N)C(=O)O; AEEA = NCCOCCOCC(=O)O; Aib = CC(C)(N)C(=O)O

How the values were obtained:
Assay in all cases: cell-based or functional assay
human glucagon receptor = human glucagon receptor (human, UniProt P47871 26-477)
human GLP-1 receptor = human GLP-1 receptor (human, UniProt P43220 24-463)
[1] = biological target: human GLP-1 receptor (GLP1R) (human, UniProt P43220 24-463)
[2] = biological target: human Glucagon receptor (GCGR) (human, UniProt P47871 26-477)

B1: PEP75 (peptide)
peptide: HXEGTFTSDKSKYLDERAAQDFVXWLLDT
modifications: D-Ser (s) at 2; Lys 10 K(γEγEC16); Nle(εN3) at 24; C-terminal amide
In the case of B1, the “hGCGR_EC50 (cAMP activity assay)” value (human glucagon receptor) is reported as over 5 nM and the “hGLP1R EC50 (cAMP activity assay)” value (human GLP-1 receptor) is reported as 0.07 nM.

B2: PEP74 (peptide)
peptide: HXQGTFTSDKSKYLDERAAQDFVXWLLDT
modifications: HsQGTFTSDK(γEγEC16)…le(ϵN3)WLLDT-NH2 (s=D-serine; K(γEγEC16) at 10; Nle(ϵN3)=azidonorleucine at 24; NH2=C-terminal amide)
With B2 the “Incretin Receptor Assay (cAMP) EC50, GLP1R (Human)” value [1] was 0.05 nM.

B3: Control molecule PEP76 (Table 7) (peptide)
peptide: H[dS]QGTFTSDK([γGlu-γGlu-C16])SKYLDERAAQDFVQWLLDT-NH2
In the case of B3, the “Incretin Receptor Assay (cAMP) EC50, GCGR (Human)” value [2] is reported as 0.009 nM and the “Incretin Receptor Assay (cAMP) EC50, GLP1R (Human)” value [1] is reported as 0.007 nM.

B4: PEP32 (peptide)
peptide: HXQGTFTSXKSKYLDERAAQDFVXWLXDT
modifications: D-Ser (s) at 2; alpha-methyl-L-Asp (αMD) at 9; Lys 10 K(γEγEC16); Nle(εN3) at 24; L-methionine sulphone (2) at 27; C-terminal amide
For B4, the “hGCGR_EC50 (cAMP activity assay)” value (human glucagon receptor) was 0.06 nM and the “hGLP1R EC50 (cAMP activity assay)” value (human GLP-1 receptor) was 0.04 nM.

B5: PEP37 (peptide)
peptide: HXQGTFTSDKSKYLDERAAQDFVXWXXDT
modifications: D-Ser (s) at 2; Lys 10 K(γEγEC16); Nle(εN3) at 24; alpha-methyl-L-Leu (αML) at 26; L-methionine sulphone (2) at 27; C-terminal amide
For B5, the “hGCGR_EC50 (cAMP activity assay)” value (human glucagon receptor) was 0.06 nM and the “hGLP1R EC50 (cAMP activity assay)” value (human GLP-1 receptor) was 0.04 nM.

B6: PEP35 (peptide)
peptide: HXQGTFTSDKSKYLDERAAQDXVXWLXDT
modifications: D-Ser (s) at 2; Lys 10 K(γEγEC16); alpha-methyl-L-Phe (αMF) at 22; Nle(εN3) at 24; L-methionine sulphone (2) at 27; C-terminal amide
With B6 the “hGCGR_EC50 (cAMP activity assay)” value (human glucagon receptor) was 0.05 nM and the “hGLP1R EC50 (cAMP activity assay)” value (human GLP-1 receptor) was 0.05 nM.

B7: PEP31 (peptide)
peptide: H[Aib]QGTFTSDYSKYLDARAAK([AEEA-AEEA-γGlu-C20 diacid])DFV[Lys(N3)]WL[Met(O2)]DT-NH2
modifications: N-terminus assumed
SMILES: CC(C)C[C@H](NC(=O)[C@H](Cc1ccc(O)cc1)NC(=O)[C@H](CCCCN)NC(=O)[C@H](CO)NC(=O)[C@H](Cc1ccc(O)cc1)NC(=O)[C@H](CC(=O)O)NC(=O)[C@H](CO)NC(=O)[C@@H](NC(=O)[C@H](Cc1ccccc1)NC(=O)[C@@H](NC(=O)CNC(=O)[C@H](CCC(N)=O)NC(=O)C(C)(C)NC(=O)[C@@H](N)Cc1c[nH]cn1)[C@@H](C)O)[C@@H](C)O)C(=O)N[C@@H](CC(=O)O)C(=O)N[C@@H](C)C(=O)N[C@@H](CCCNC(=N)N)C(=O)N[C@@H](C)C(=O)N[C@@H](C)C(=O)N[C@@H](CCCCNC(=O)COCCOCCNC(=O)COCCOCCNC(=O)CC[C@H](NC(=O)CCCCCCCCCCCCCCCCCCC(=O)O)C(=O)O)C(=O)N[C@@H](CC(=O)O)C(=O)N[C@@H](Cc1ccccc1)C(=O)N[C@H](C(=O)N[C@@H](CCCCN=[N+]=[N-])C(=O)N[C@@H](Cc1c[nH]c2ccccc12)C(=O)N[C@@H](CC(C)C)C(=O)N[C@@H](CCS(C)(=O)=O)C(=O)N[C@@H](CC(=O)O)C(=O)N[C@H](C(N)=O)[C@@H](C)O)C(C)C
B7 was tested, and the “hGCGR_EC50 (cAMP activity assay)” value (human glucagon receptor) was 4.24 nM and the “hGLP1R EC50 (cAMP activity assay)” value (human GLP-1 receptor) was 1.38 nM.

B8: PEP71 (peptide)
peptide: H[dS]QGTFTSDKSKYLDERAA[Lys(N3)]DFVQWLLDT-NH2
With B8 the “hGCGR_EC50 (cAMP activity assay)” value (human glucagon receptor) was 0.12 nM and the “hGLP1R EC50 (cAMP activity assay)” value (human GLP-1 receptor) was 0.06 nM.

B9: PEP69 (peptide)
peptide: HXQGTFTSDKSKYLDERAAQDFVXWLLDT
modifications: D-Ser (s) at 2; Nle(εN3) at 24; C-terminal amide
B9 was tested, and the “hGCGR_EC50 (cAMP activity assay)” value (human glucagon receptor) was 0.31 nM and the “hGLP1R EC50 (cAMP activity assay)” value (human GLP-1 receptor) was 0.16 nM.

B10: PEP34 (peptide)
peptide: HXQGTFTSDKSKYLDERAAQXFVXWLXDT
modifications: D-Ser (s) at 2; Lys 10 K(γEγEC16); alpha-methyl-L-Asp (αMD) at 21; Nle(εN3) at 24; L-methionine sulphone (2) at 27; C-terminal amide
B10 was tested, and the “hGCGR_EC50 (cAMP activity assay)” value (human glucagon receptor) was 0.05 nM and the “hGLP1R EC50 (cAMP activity assay)” value (human GLP-1 receptor) was 0.05 nM.
